Source: patent US20250019453A1 (SYNTHEKINE, published 2025)

B1: hIL2Rb_VHH5 Mono-Fc VHH (Fc fusion, not shown: a dimerising Fc or GST)
chain: QVQLQESGGGSVQVGGSLRLSCATSGDTKSIRCMGWFRQTPGKEREGIAAIDREGFATYADSVYDRFTIAQDNAQNTLYLEMNALKPEDTAMYYCAAQNMCRVVRGAMTGVDYWGKGTQVTVSS
B2: hIL2Rb_VHH6 Mono-Fc VHH (Fc fusion, not shown: a dimerising Fc or GST)
chain: QVQLQESGGGSVQAGGSLRLSCAASEYTASRYCMAWFRQAPGKEREGVAAIHPGGGTTYYADSVKGRFSISQDSADNTLYLQMNSLKPEDTAMYYCAAGSLWVPFGDRCAANYWGQGTQVTVSS
B3: hIL2Rb_VHH7 Mono-Fc VHH (Fc fusion, not shown: a dimerising Fc or GST)
chain: QVQLQESGGGSVQAGGSLRLSCAASGYEYCRIHMTWYRQGPGKEREFVSSIGSDGRKTYANSVTGRFTISRDNANHTVYLQMNSLSPEDTAMYYCKTEYLYGLGCPDGSAYWGQGTQVTVSS
B4: hIL2Rb_VHH-8 (VHH)
VHH: QVQLQESGGGSVQVGGSLKLSCAASGYTYSSYYCMGWFRQAPGKEREGVAAIDSDGSTSYADSVKGRFTISQDDAKNTLYLQMNSLKPEDTAMYYCAASYEVVDCYPSGYGQDYWGKGTQVTVSS
notes: As a his-tagged phage clone periplasmic extract
B5: hIL-2Rg_VHH19 Mono-Fc VHH (Fc fusion, not shown: a dimerising Fc or GST)
chain: QVQLQESGGGSVQAGGSLRLSCTASGFTFDDREMNWYRQAPGNECELVSTISSDGSTYYADSVKGRFTISQDNAKNTVYLQMDSVKPEDTAVYYCAADFMIAIQAPGAGCWGQGTQVTVSS
B6: hIL-2Rg_VHH15 Mono-Fc VHH (Fc fusion, not shown: a dimerising Fc or GST)
chain: QVQLQESGGGLVQPGGSLRLSCAASGFTFSSAHMSWVRQAPGKGREWIASIYSGGGTFYADSVKGRFTISRDNAKNTLYLQLNSLKAEDTAMYYCATNRLHYYSDDDSLRGQGTQVTVSS
B7: hIL-2Rg_VHH20 Mono-Fc VHH (Fc fusion, not shown: a dimerising Fc or GST)
chain: QVQLQESGGGSVQAGGSLRLSCTASGFTFDDSDMGWYRQAPGNECELVSTISSDGSTYYADSVKGRFTISQDNAKNTVYLQMNSLKPEDTAVYYCAAEPRGYYSNYGGRRECNYWGQGTQVTVSS
B8: hIL-2Rg_VHH8 Mono-Fc VHH (Fc fusion, not shown: a dimerising Fc or GST)
chain: QVQLQESGGGSVQAGGSLRLSCVASGYTFSSYCMGWFRQAPGKEREGVAALGGGSTYYADSVKGRFTISQDNAKNTLYLQMNSLKPEDTAMYYCAAAWVACLEFGGSWYDLARYKHWGQGTQVTVSS
B9: hIL-2Rg_VHH22 Mono-Fc VHH (Fc fusion, not shown: a dimerising Fc or GST)
chain: QVQLQESGGGLVQPGGSLRLSCTASGFSFSSYPMTWARQAPGKGLEWVSTIASDGGSTAYAASVEGRFTISRDNAKSTLYLQLNSLKTEDTAMYYCTKGYGDGTPAPGQGTQVTVSS
B10: hIL-2Rg_VHH21 Mono-Fc VHH (Fc fusion, not shown: a dimerising Fc or GST)
chain: QVQLQESGGGSVQAGGSLRLSCVASGYTSCMGWFRQAPGKEREAVATIYTRGRSIYYADSVKGRFTISQDNAKNTLYLQMNSLKPEDIAMYSCAAGGYSWSAGCEFNYWGQGTQVTVSS

These binders were tested against T1, hIL2Rb-his (human, UniProt P14784 27-240) (assay: SPR; ratio of experimental to calculated Rmax).
T1 sequence: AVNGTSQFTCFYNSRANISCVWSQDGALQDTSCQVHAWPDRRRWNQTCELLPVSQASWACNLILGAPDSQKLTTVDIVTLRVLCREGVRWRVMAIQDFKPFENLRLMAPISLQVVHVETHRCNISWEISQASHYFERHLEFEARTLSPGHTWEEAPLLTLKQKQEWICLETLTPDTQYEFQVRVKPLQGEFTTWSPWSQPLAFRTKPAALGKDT
Procedure: (§1) A representative example from each hIL2Rb VHH clonotype generated as descried above was selected for evaluation of binding via SPR as follows. Evaluation of binding affinity of the hIL2Rb binding molecules shown in Table 16 was conducted using surface plasmon resonance (SPR) in substantial accordance with the following procedure. All experiments were conducted in 10 mM Hepes, 150 mM NaCl, 0.05% (v/v) Polysorbate 20 (PS20) and 3 mM EDTA (HBS-EP+ buffer) on a Biacore T200 instrument equipped with a Protein A derivatized sensor chip (Cytiva). Mono-Fc VHH ligands were flowed at 5 μl/min for variable time ranging from 18 to 300 seconds, reaching the capture loads listed in the tables below. Following ligand capture, injections of a 2-fold dilution series of the extracellular domain of the IL2Rb-receptor modified to incorporate a C-terminal poly-His sequence, typically comprising at least five concentrations between 1 μM and 1 nM, were performed in either high performance or single cycle kinetics mode. Surface regeneration was achieved by flowing 10 mM glycine-HCl, pH 1.5 (60 seconds, […]). Buffer-subtracted sensograms were processed with Biacore T200 Evaluation Software and globally fit with a 1:1 Langmuir binding model (bulk shift set to zero) to extract kinetics and affinity constants (kₐ, kd, KD). RMAX<100 RU indicates surface density compatible with kinetics analysis. Calculated Rₘₐₓ values were generated using the equation: Rmax=Load (RU)×valency of ligand×(Molecular weight of analyte/Molecular weight of ligand). Surface activity was defined as the ratio of experimental/calculated Rmax.

Binder | Surface Activity [%]
B1 | 42
B2 | 53
B3 | 43

These binders were tested against T1, hIL2Rb-his (assay: SPR Biacore T200; Mono-Fc VHH captured on Protein A chip, hIL2Rb-his analyte; 1:1 Langmuir fit).
Procedure: as §1

Binder | Kd [nM] | koff [s⁻¹] | kon [M⁻¹ s⁻¹]
B1 | 0.4 | 0.00154 | 3.82e+06
B2 | 1.2 | 0.0229 | 1.9e+07
B3 | 1.1 | 0.00317 | 2.86e+06

Each binder was assayed against T2, hIL2Rb ECD antigen (human, UniProt P14784 27-240) (assay: PE-ELISA of phage clones).
T2 construct: The immunogen was the ECD fused to human IgG1 hinge and Fc; also called ECD of IL2Rb (human); human IL-2Rβ
T2 sequence: T1 sequence

Binder | binding result
B4 | binds

These binders were tested against T3, hIL2Rg-his (Sino Biological, Catalog# 10555) (human, UniProt P31785 23-262) (assay: SPR; ratio of experimental to calculated Rmax).
T3 construct: Bought; also called extracellular domain of hIL2Rg
T3 sequence: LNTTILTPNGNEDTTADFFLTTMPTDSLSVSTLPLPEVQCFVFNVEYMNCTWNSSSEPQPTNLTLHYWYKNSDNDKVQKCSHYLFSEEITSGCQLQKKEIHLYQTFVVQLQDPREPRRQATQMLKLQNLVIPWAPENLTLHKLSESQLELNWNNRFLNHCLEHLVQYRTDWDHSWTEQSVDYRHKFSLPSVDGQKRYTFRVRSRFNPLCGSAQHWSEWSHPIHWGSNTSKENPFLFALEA
Description: (§2) To confirm and evaluate binding affinities of the binding of the IL2Rg sdAbs, a representative example from each clonotype generated was selected for evaluation of binding via SPR. […] Buffer-subtracted sensograms were processed with Biacore T200 Evaluation Software and globally fit with a 1:1 Langmuir binding model (bulk shift set to zero) to extract kinetics and affinity constants (kₐ, kd, KD). RMAX<100 RU indicates surface density compatible with kinetics analysis. Calculated Rₘₐₓ values were generated using the equation: Rmax=Load (RU)×valency of ligand×(Molecular weight of analyte/Molecular weight of ligand). Surface activity was defined as the ratio of experimental/calculated Rmax.
Calculated Rmax were generated using the equation Rmax=Load (RU)×valency of ligand×(Molecular weight of analyte/Molecular weight of ligand. Surface activity was defined as the ratio experimental/calculated Rmax. See tables 16 and 17 below for sample information and experimental results.

Binder | Surface Activity [%]
B5 | 33
B6 | 73
B7 | 48
B8 | 110
B9 | 108
B10 | 6

The binders below were run against T3, hIL2Rg-his (Sino Biological, Catalog# …) (assay: SPR Biacore T200; Mono-Fc VHH captured on Protein A chip, hIL2Rg-his analyte; 1:1 Langmuir fit).
Description: as §2
All experiments were conducted in 10 mM Hepes, 150 mM NaCl, 0.05% (v/v) Polysorbate 20 (PS20) and 3 mM EDTA (HBS-EP+ buffer) on a Biacore T200 instrument equipped with a Protein A chip (Cytiva). Mono-Fc VHH ligands were flowed at 5 μl/min for variable time ranging from 18 to 300 seconds, reaching the capture loads listed in the tables below.
Following ligand capture, injections of a 2-fold dilution series of his-tagged cytokine receptors typically comprising at least five concentrations between 1 μM and 1 nM were performed in either high performance or single cycle kinetics mode. Surface regeneration was achieved by flowing 10 mM glycine-HCl, pH 1.5 (60 seconds, 50 μL/min). Buffer-subtracted sensograms were processed with Biacore T200 Evaluation Software and globally fit with a 1:1 Langmuir binding model (bulk shift set to zero) to extract kinetics and affinity constants (kₐ, kd, KD). RMAX<100 RU indicates surface density compatible with kinetics analysis.

Binder | Kd [nM] | koff [s⁻¹] | kon [M⁻¹ s⁻¹]
B5 | 2.4 | 0.00693 | 2.85e+06
B6 | 26 | 0.00251 | 96800
B7 | 14.1 | 0.0027 | 192000
B8 | 2.2 | 0.000812 | 366000
B9 | 6.4 | 0.00354 | 554000
B10 | 17.2 | 0.00113 | 65600
